# Measured values from the nanobody polyreactivity screen of Harvey et al. (2022).
# Experiment: yeast display, Sf9 membrane polyspecificity reagent, FACS + sequencing; frameworks hold sequencing errors
# Outline: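 In a synthetic yeast display library (Saccharomyces cerevisiae BJ5465), nanobody expression was induced with galactose for 36–48 hours. FACS gates were set low and high (top ~1%) using anti-HA fluorescence for expression and streptavidin fluorescence for binding of the Sf9 membrane reagent. Each polyreactivity label is drawn from the gate of origin.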
row,Sequence,polyreactivity (PSR sort gate)
1,QVQLVESGGGLVQAGGSLRLSCAASGNIFSINAMGWYRQAPGKERELVAAISWSGGSTYYADSVKGRFTISRDNAKNTVYLQMNSLKPEDTAVYYCAADVYYLGYYEYYYWGQGTQVTVSS,high polyreactivity
2,QVQLVESGGGLVQAGGSLRLSCDASGRTFGVYAMGWYRQAPGKERELVAAISTRGGSTYYADSVKGRFTISRDNAKNTVYLQMNSLKPEDTAVYYCAAEQYVWGYWFNYGYWGQGTQVTVSS,high polyreactivity
3,QVQLVESGGGLVQAGGSLRLSCAASGSIFVGNAMGWYRQAPGKERELVAAISSSGGRTFYADSVKWRFTISRDNAKNTVYLQMNSLKPEDTAVYYCAAVYTHWQQRMDYWGQGTQVTVSS,high polyreactivity
4,QVQLVESGGGLVQAGGSLRLSCAASGIIFSSYAMGWYRQAPGKERELVAAISTSGGRTYYADSVKGRFTISRDNAKNTVYLQMNSLKPKDTAVYYCAARYGYWGQGTQVTVSS,high polyreactivity
5,QVQLVESGGGLVQAGGSLRLSCAASGSIFRPNAMGWYRQAPGKERELVAAITWSGDSTYYADSVKGRFTISRDNAKNTVYLQMNSLKPEDTADYYCAADFTYQGSSANDYWGQGTQVTVSS,low polyreactivity
6,QVQLVESGGGLVQAGGSLRLSCAASGGIFHNYAMGWYRQAPGKERELVAAITTSDGSTYYEDSVKGRFTISRDIAKNTVYLEMNSLKPEDTAVYYCNAEYLYTVYFDDGGFIMDYWGQGTQVTVSS,low polyreactivity
7,QVQLVESGRGLVQAGGSLRISCAASGRIFFYYTMGWYRQAPGRERELVAAINSTGATNYADSVKGRFTISRDNAKNTVYLQMNSLKPEDTAVYYCNAGTRYIFLYPPFLGAAFDYWGQGTQVTVSS,low polyreactivity
8,QEQLQESGGGLVQACGSLRLSCAASGYIFSHQYMGWYRQAPGKERELVASISPGATTNYADSVKGRFTISRDNAKNTVYLQMNSLKPEDTAVYYFAVYKILDRRLSYWGQGTQVTVSC,high polyreactivity
9,QVQLVESGGGLVQAGGSLRFSCAASGFTIVGNTMGWYRQAPGKERELVASINTNGGSTYYADSVKGRFTISRDNAKNTVYLQMNSLKPEDTAVYYCAKDREDTYFEYEYDYWGQGTQVTVSS,low polyreactivity
10,QVQLVESGGGLVQAGGSLRLSCAASGYTFGPYAMGWYRQAPGKERELVAAITTRGGSTYYADSVKGRFTISRDNAKNTVYLQMNSLKPEDTAVYSCAAVVNSKSIQRVVRYYYWGQGTQVTVSS,high polyreactivity
11,QVQLVESGGGLVQAGGSLRLSCAASGSTLWGYVMGWYRQAPGKERELVAVISKSGGSTYYADSVKGRFTISRDNANNTVYLQMNSLKPEDTAVYYCATRWPYRSDWGQGTQVTVSS,high polyreactivity
12,QVQLVESGGGLVQAGGSLRLSCAASGSTFYYYAMGWYRQAPGKERELVAAITNVTSTYYADSVKGRFTISRDNAKNTVYLQMNSLKPEDTAGYYCAAPDPSTEVTYDYWGQGTQVTVSS,low polyreactivity
13,QVQLVESGGGLVQAGGSLRLSCAASGRIFGHYAMGWYIQAPGKERELVAAISRGGSTNYADSVKGRFTISRDNAKNTVYLQINSLKPVDNAVYYCNAAYSDYEYDYWGQGTQVSVSS,low polyreactivity
14,QVQLVESGGGLVQAGGSLRLSCAASGGIFSYYAMGWYRQAHGKERELVAAISGSGGRTYYADSVKGRFTISRDNAKNTVYLQMNSLKPEDTAVYYCAADSLSYSWEYYYWGQGTQVTVSS,high polyreactivity
15,QVQLLESGGGLVQAGGSLRLSCAASGFNFGGYVMGWYRQAPGKESELVAAISSSGGITHYADSLKGRFTISRDNAKNTVSLQMNRLKPEDTAVYYCNALYRQRYYWGQGTQVTVSS,high polyreactivity
16,QVQLVESGGGLVQAGGSLRLSCAASGITFHRYAMRWYRQAPGKERELVAAINGGGGSTYYADSVKGRFTISRDNAKNTVYLQMNSLKPEDTAVYYCAAEVQNGVHIYDYWGQGTQVTVSS,high polyreactivity
17,QVQLVESGGRLVQAGGSLRLSCAASGRTFGWYAMGWYRQAPGKERELVAAINRRVGRTYYADSVKGRFTISRDNAKNTVYLQMNSLIPEDTAVYYCAVKQGFYSRALKLYYWGQGTQVTVSS,high polyreactivity
18,QVQLVESGGGLVQAGGSLRLSCAASGSTFRIYAMGWYRQAPGKERELVAAISSGGRTNYADSVKGRFTISRDNAKNNVYLQMNSLKPEDTAVYYCNAVFLPTYHFDYWGQGTQVTVSS,high polyreactivity
19,QVQLVESGGGLVQAGGSLRLSCAASGSTFLYYAMGWYIQAPGKERELVAAISRSGGNTYYADSVKGRFTISRDNAKNTVYLQMNSLKPEDTAVDYCAKSPPGRGIRRLYYYWGQGTQVTVSS,high polyreactivity
20,QVQLVESGGGLVQAGGSLRLSCAASGLIFFYYPMGWYRQAPGKEWEMVAAIRTNYADSVKGRFTISRDNAKNTVDLQMYSLKREDTADYYCAAESSQTPTSAFDYWGQGTQVTVSS,low polyreactivity
21,QVQLQESGGGLVQAGGSRRLSCAASGTIFTARFMGWYRQATGKERELVSTITDGGNTNHAESVKCRFTISRDNAKNTGSLQMNSLKPEYAAVYYCAAGEVDNDTLLYWGQGSQVTVSS,low polyreactivity

row,Sequence,polyreactivity (PSR sort gate)
1,QVQLVESGGGLVQAGGSLRLSCAASGFIFHVYAMGWYRQAPGKERELVAAISGTGGSTYYADSVKGRFTISRDTALNTVSLQMNSLKPEDTAVYYYKAERSGNGYCGQGTQVTVSS,high polyreactivity
2,QVQLVESGGGLVQAGGTLRLSCAASGFIFTGYTMGWYRQAPGKERELVARISSGDSTKYADSVKGRFTISRDNAKNTVYLQMNSLKPEDTAVYYCNKRHGTYGSVYYSREGYWGQGTQVTVSS,high polyreactivity
3,QVQLVESGGGLVQAGGSLRLICAASGRTFPYNAMGWYRQAPGKERELVAAISSGTRTDYADSVKGRFTISRDNAKNTVYLQMNSLKPEDTAVYYCAADYYHYLWRAYGFDYWGQGTQVTVSS,high polyreactivity
4,QVQLVESGGGLVQAGGSLRLSCAASGRIFAGYAMGWYRQAPGKERELVAAISNARRTNYADSVKGRFTISRDNAKNNVYLHMNSLKPEDTAVYYCAASRYGRKFSLYDYYYWGQGTQVTVSS,high polyreactivity
5,QVQLVESGGGLVQAGGSLRLSCAASGSIFKIYAMGWYRQAPGKERELVASITGSGGSTYYADSVKGRFTISRDNAKNTVYLQMNSLKPEDTAVYYCIADGPLDRYEYWGQGTQVTVSS,low polyreactivity
6,QVQLVESGGGLVQAGGSLRLSCAASGFTFGANDMGWYRQAPGKERELVATISSSGGTTYYADSVKGRFTISRDNAKNTVYLQMNSLKPEDTAVYYCAAKGLFTGRVSRYADDHCGQGTQVTVSS,low polyreactivity
7,QVQLVESGGGLVLAGGSLRLSCAASGRIYRIYNKGWYRQAPGKERELVAAISKSGGGTYYADSVKGRFTISRDNAKNTVYLQMNSLKPEDTAVYYCTTANWDRKSRVFRQSTVGYGYWGQGTQVTVSS,high polyreactivity
8,QVQLQERAAWCRRAGSLLLSCAASGNISDYYFMGWYRQAPAKERELVAAIAPGSNTYYADSVQGRFTISRDNAKKTVYLQMNSLKPEDTAVCFCAANSTQYTWFDDWGQGTQVPVSS,low polyreactivity
9,QVQLVESAGGLVQAGGSLRLSCAASGSNDTNAMGWYRQEPWKERELVADITSGTPTYADSVKGRFTISRDNAKNTVFLQMNSLKPEDTAVYYCAADIPPWCGDYWGQGTQVTVSS,low polyreactivity
10,QVQLVESGGGLVQAGGSLRLSCAASGRTFYSNSMGWYRQAPGKERELVATISWRGGSTYYADSVKGRFTISRDNAKNTVYFQMHSLKPEDTAVYYCAAGYYPYWGQGTQVTVSS,low polyreactivity
11,QVQLVESGGGLVQAGGSLRLSCAASGITFYRYAMGWYRQAPGKERELVAAISSRGGRTYYADSVKGRFTISRDNAKNTVYLQMNSLKPEDTAVYYCAKGGKVGSTLEYDYWGQGTQVTVSS,high polyreactivity
12,QVQLVESGGGLVQAGGSLRLSCAASGSIFSYYAMGGYRQAPGKARELVASISWNGTSTYYADSVKGRFTISRDNAKNTVYLQMNSLKPEDTAVYYCNVRFNYRGTYDYWGQGTQVTVSS,low polyreactivity
13,QVQHVESGGGLVQAGGSLRLSCAASGRTFYSYAMGWYRQAPGKERELVAAISGRGGRTYYADSVKGRFTISRDNAKNTVYLQMNSLKPEDSAVYFCAKGGYAIRYYGFDYWGQGTQVTVSS,high polyreactivity
14,QVQLVESGGGLVQAGGSLRLSCAASGSTFYAYAMGWYRQEPGKERELVAAINSVGSTYYADSVKGRFTISRDNAKNTVYLQMNSLKPEDTAVYYCARGVDYPTSQPPYFRHDYWGQGTQVTVSS,low polyreactivity
15,QVQLEESGGGLVQAGGSLRLSCAASGSIFRGYAMGWYRQAPGKERELVAAITWGGGSTYADSVKGRFTISRDNAKNTVYLQMNSLKPEDTAVYYCAARYVSRYYVYRGFEYWGQGTQVTVSS,high polyreactivity
16,QVQLVESGGGLVQAGGSLRLSCAASGRIFFPYAMGWYRQAPGKERELVAAISTSSGRTYYADSVKGRFTISRDNAKNTVYLQMNSLKPEDTAVYYCNTRPGSYSYSYRYYYWGQGTQVTVSS,high polyreactivity
17,QVQLVESGGGLVQAGGSLRLSCAASAIIFAQYTMGWNRQAPGKERELVAAINRNGGSTYYADSVKGRFTISRDNAKNTVYLQMNSLKPEDTAVYYCNADALGFRYDYWGQGTQVTVSS,low polyreactivity
18,QVQLVESGGGLGQAGGSLRLSCAASGFNFYGYAMGWYRQAPGKERELVAAISSGGGRTYYADSVKGLFTISRDNAKNTVYLQMNSLKPEDTAVYYCAAKVYFYTGGGGEDYWGQGTKVTVSS,low polyreactivity
19,QVQLVESGGGLVQAGGSLRLSCAATGRIFPYYAMGWYRQAPGKERALVATISSGGRTNYADSVKGRFTISRDNAKNTVYLQMNSLNPEDTAVYYCAADYRKSRVFYGLYYWGQGTQVTVSS,high polyreactivity
20,QVQLVESGGGLVQAGGSLRLSCAASGFIFGSYAMGWYRQAPGKERELVAAITSDGNTDYADSVKGRFTISRDNAKNTVYLQMNSLKPEDTAVYYCATDWVDHYDYWGQGTQVTVSS,low polyreactivity
